Key:
MS2 coat protein [1] = experiment: apparent KD of MS2 coat protein, switch ON state; designed switch direction (-1 OFF switch, 1 ON switch): -1; higher = weaker reporter binding; settings: FMN input: 0 or 200 uM; Eterna round: R93 (includes R88 designs)
Summary of the method: (§1)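 Designed RNA switches were made by on-chip transcription from Illumina sequencing clusters and then titrated with SNAP-549-labelled MS2 coat protein. Twofold steps ran from 0.7 or 1.5 nM to 3 µM, each lasting 0.8–1.5 h early and 10–20 min late, in 100 mM Tris-HCl pH 7.5, 80 mM KCl, 4 mM MgCl2, without or with constant ligand. Apparent KD is the per-design median of normalised cluster binding-curve fits.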

MS2 coat protein [2] = experiment: apparent KD of MS2 coat protein, switch OFF state (with FMN for OFF switches, without FMN for ON switches); designed switch direction (-1 OFF switch, 1 ON switch): -1; higher = weaker reporter binding; settings: FMN input: 0 or 200 uM; Eterna round: R93 (includes R88 designs)
Summary of the method: as §1

Sequence | apparent KD of MS2 coat protein (MS2 coat protein [1]) | apparent KD of MS2 coat protein (MS2 coat protein [2])
GAAGAACAUGAGGAUCACCCAUGUCAGGAUAUGAGCAAGGGAAUAAUAACUUGCGGAAUCAGAAGGGACAAGAA [Ex 1 May 51] | 31.7 nM | 43.6 nM
AGUACUACAGGAUAUACGAGGGAGGUCCACGUGAACCUUAUACAUGAGGAUCACCCAUGUAGAAGGGUAGUACA [Ex2 Design 108: Super Stable 8] | 50.9 nM | 18.4 nM
AAGACUACAGGAUAUACAUGAGGAUCACCCAUGUAACUGACAAGUAGAUGACGGAGAAGUAGAAGGGUAGUCAA [Ruby 36] | 18.5 nM | 31.8 nM
AGCUAGAGAGGAUAUACAUAAAAAAAAAAAGUCUGAUCCCUACAUGAGGAUCACCCAUGUAGAAGGCUCUGGCA [Ex2 Design 157: Sub-opt 21] | 38.1 nM | 38.5 nM
AAAAAGCGAGGAUAUACAUGAGGAUCACCCAUGUCAAACGGUAAGACCGCAGGAAACAGUAGAAGGCGCAAAAA [Exclusion3-03] | 58.3 nM | 91.1 nM
AAAAAACAUGAGGAUCACCCAUGUGAGGAUAUGUGAAAAAAAAAAUAAAAAAAAAAAAGCAGAAGGUACAAAAA [LROPPY Exclusion 1 - v03_deltaG=3.94] | 43.7 nM | 39.9 nM
GGAACACAUGAGGAUCACCCAUGUCAGGAUAUGUAGAUAAAAAGAAAAUAAAAUAAAAGCAGAAGGGACAAAAG [May 4] | 60.2 nM | 44.5 nM
AGCUAGUCAGGAUAUACGCAAACGAACGAAGCAGAGAAGGGACAUGAGGAUCACCCAUGUAGAAGGGACUAGCA [Diamond 31] | 28.8 nM | 84.9 nM
AAAAAACAUGAGGAUCACCCAUGUAAGGAUAUGCUCAAGCGAAAAAGCACAAAAAAGAGCAGAAGGUACAAAAA [66%, Wbt, 41] | 22.6 nM | 31 nM
GAAAAGUGAGGAUAUUCGGAUAGGAAAACGAAAACCUAUCCGAAGAAGGCACAUGAGGAUCACCCAUGUGGAAA [Mat - Exaclusion 4 - Eli mod - D45] | 30.1 nM | 31.5 nM
AAGAAUGCAGGAUAUACAUGAGGAUCACCCAUGUAAAAGAAAGAAAGGGAAAAGAAAAGUAGAAGGGCAAAGAA [Usermaatre-setepenamun Osorkon II] | 35.8 nM | 36.5 nM
AGAAAACAUGAGGAUCACCCAUGUAAGGAUAUGCUGAAAAAACACUGGAAACAGUGCAGCAGAAGGUACAAAGA [Mat - Exclusion 1 - Eli mod - D99] | 22.1 nM | 43.3 nM
AAAAAACAUGAGGAUCACCCAUGUGAGGAUAUGCAAAACUUAUAUAAAAAGGGAAAAAGUAGAAGGCACAAAAA [LROPPY Exclusion 1 - v09_water mod] | 30.4 nM | 39.2 nM
AAGAAUGGAGGAUAUACAAGAAAGAAAGAAAAGAAAAGAAAACAUGAGGAUCACCCAUGUAGAAGGCCAUAGAA [EteRNA is fun!] | 24.9 nM | 13.8 nM
AAGAACGUAGGAUAUACUAAAGAAAUGAAAAGAAAUAAAGAACAUGAGGAUCACCCAUGUAGAAGGACGAAGAA [Nebdjefare] | 29.1 nM | 25.2 nM
AGCUCGGUAGGAUAUACAAAAUGAUUGCGAAAGCAAUCAACACAUGAGGAUCACCCAUGUAGAAGGACCGAGCA [Mat - Exclusion 2 - JL-Eli mod - D42] | 15.2 nM | 20 nM
AACAAGACAGGAUAUACAUGAGGAUCACCCAUGUCACAACAAAGCAGCGCAACACAAAGUAGAAGGGUCAUGGA [Ruby 11] | 81.2 nM | 82.6 nM
AAGCCACAUGAGGAUCACCCAUGUAAGGAUAUGAACGAAAAUAAAUAAAAAUAAAAGUUCAGAAGGUACAAAAA [66%, Wbt, 23] | 27.1 nM | 25.3 nM
